{"source": "patent US20060122105A1", "about": "“Method of improing the growth performance of an animal” (priority 2001, published 2006)", "assay_type_in_all_cases": "in vivo", "key": {"[1]": {"test": "Growth performance of weaner pigs treated with IL-1ra or saline, with or without in-feed antibiotics (Example 1)", "conditions": "for warm carcass weight: FIG. 6; for rate of gain over the grower phase: D79 and D93, FIG. 3", "method": "Recombinant porcine. IL-1ra was expressed in E. coli and purified using a polyhis tag system. IL-1ra was tested for biological activity in a bioassay prior to the start of the experiment.\nMale weaner pigs (28 days old) were allocated to treatment groups of 20 as described in Table 1. The mean weight for each treatment group was equal, with equal variance. Pigs were housed in group pens of 20, with 2 pens provided with medicated water and feed as per current industry standards, while 2 pens were given unmedicated water and feed. Pigs were injected twice weekly with recombinant IL-1ra or saline (control), in a volume of 1 ml, for the duration of the weaner phase (42 days), as described in Table 2.\nUpon commencement of the weaner phase (day 0) and upon completion of the weaner phase (day 42), pigs were […]"}, "haemorrhagic E. coli": {"test_system": "haemorrhagic E. coli", "test": "Haemorrhagic E. coli challenge of weaner pigs, prophylactic treatment (Example 3)", "conditions": "for reduction of E. coli culture score at post-mortem compared to saline: FIG. 19", "method": "Male weaner pigs, with a mean weight of 5.4 kg were allocated to groups of 8, with the mean weight being equalised between groups. Pigs were housed in group pens containing a replicate from each treatment group. Pigs were provided with pelleted feed and water ad libitum.\nPigs were treated with recombinant saline, IL-1ra or the antibiotic, Apralan, and challenged with E. coli according to the schedule outlined in Table 3. Saline, or 200 μg of IL-1ra were delivered intramuscularly in 1 ml doses. Apralan was delivered orally according to manufacturer's instructions at a dose of 12 mg/kg. E. coli challenges were delivered orally in an 8 ml dose containing 10^8 cfu/ml. Blood was sampled from pigs by venipuncture at −2 days, day 0, and +6 days from initial challenge with E. coli as outlined in Table 3. Blood was assayed for immunological parameters including white blood cell number, differential cell counts, lymphocyte subset enumeration, IgG levels and cytokine production. Pigs were weighed at day −2 and at the end of the trial on day 6.\nFaecal samples were taken from each pig daily for 5 days from day 2 to day 6 after challenge; these samples were cultured on sheep blood agar to quantify E. coli load. Growth on sheep blood agar was scored from 0 to 5 (where 0 was no growth, 1 signified growth in the primary inoculum, 2 signified growth in the first streak, 3 signified growth in the 2nd streak, 4 signified growth in the 3rd streak, and 5 signified growth of E. coli in the final streak). The condition of faeces was noted as normal, wet or diarrhoea, as an indication of clinical signs.\nAt the conclusion of the experiment on day 7, pigs were euthanased and swabs were taken from different areas in the gastro-intestinal tract, including the small intestine (25%, 50% and 75% along the length of the small intestine), the caecum and colon, and from the faeces in situ. These post-mortem swabs were cultured on sheep blood agar to quantify E. coli load as described above."}, "[2]": {"test_system": "Actinobacillus pleuropneumoniae (App)", "test": "App challenge of pigs, prophylactic low or high doses of IL-1ra or IL-1ra+IL-4 (Table 8)", "conditions": "for rate of gain: last 10 days of challenge, FIG. 44", "method": "Blood was sampled from pigs by venipuncture at −24 h, +0 h, +24 h and +3 weeks from challenge. Blood was assayed for immunological parameters as previously described. Pigs were weighed at day −1, day 10 and at 3 weeks."}}, "data": [{"molecule": "IL-1ra: Recombinant porcine IL-1ra expressed in E. coli and purified using a polyhis tag system (protein, UniProt Q29056 26-177, looked up, polyhistidine tag, Recombinant porcine IL-1ra expressed in E. coli and purified using a polyhis tag system) Interleukin-1 receptor …: HPLGKRPCRMQAFRIWDVNQKTFYLRNNQLVAGYLQGPNTKLEEKIDVVPVEPHFVFLGIHGGKLCLSCVKSGDEMKLQLDAVNITDLRKNSEQDKRFTFIRSDSGPTTSFESAACPGWFLCTALEADQPVGLTNTPKAAVKVTKFYFQQDQ", "values": [{"measurement": "rate of gain over weeks 5 and 6 of the weaner phase", "setting": "[1]; 200 μg IL-1ra twice weekly, both medicated and non-medicated feeding regimes, FIG. 2", "value": "outperforming saline treated pigs"}, {"measurement": "rate of gain over the first 4 weeks of the weaner phase", "setting": "[1]; 200 μg IL-1ra twice weekly, vs saline controls, FIG. 1", "value": "performed as well as saline controls"}, {"measurement": "warm carcass weight", "setting": "[1]; IL-1ra in absence of antibiotics", "value": "equal to that obtained by pigs fed antibiotics and treated with saline"}, {"measurement": "warm carcass weight", "setting": "[1]; IL-1ra in presence of antibiotics", "value": "greater than that of their saline-treated counterparts"}, {"measurement": "average weight at slaughter, heavier than pigs treated with saline and provided with in-feed antibiotics", "setting": "[1]; IL-1ra in weaner phase in absence of in-feed antibiotics, FIG. 5", "value": 0.7, "unit": "kg"}, {"measurement": "rate of gain over the grower phase", "setting": "[1]; IL-1ra in weaner phase with medicated diet", "value": "highest rate of gain"}, {"measurement": "rate of gain over the grower phase", "setting": "[1]; IL-1ra in weaner phase without in-feed medication", "value": "grow as quickly as pigs treated with saline and provided with in-feed medication"}, {"measurement": "rate of gain over the finisher phase", "setting": "[1]; IL-1ra in weaner phase without medicated diet, FIG. 4", "value": "highest rate of gain of all groups"}, {"measurement": "feed conversion ratio during the finisher phase", "setting": "[1]; day 93-day 133, treatment during weaner phase, IL-1ra in absence of in-feed antibiotics, FIG. 7", "value": 2.49}, {"measurement": "decrease in faecal shedding, faecal scores tallied over the entire challenge period, compared to saline treated controls", "setting": "haemorrhagic E. coli; 5 days after E. coli challenge, FIG. 15", "value": 37, "unit": "%"}, {"measurement": "recorded cases of wet faeces and diarrhoea (clinical signs)", "setting": "haemorrhagic E. coli; 5 days after E. coli challenge, FIG. 16", "value": "fewer recorded cases of wet faeces and diarrhoea"}, {"measurement": "group mean total E. coli culture score, all gut areas at post-mortem", "setting": "haemorrhagic E. coli; FIG. 20", "value": "less than 10 out of a possible 30"}, {"measurement": "reduction of E. coli culture score at post-mortem compared to saline", "setting": "haemorrhagic E. coli; anterior part of the small intestine", "value": 71, "unit": "%"}, {"measurement": "reduction of E. coli culture score at post-mortem compared to saline", "setting": "haemorrhagic E. coli; caecum", "value": 39, "unit": "%"}, {"measurement": "reduction of E. coli culture score at post-mortem compared to saline", "setting": "haemorrhagic E. coli; colon", "value": 44, "unit": "%"}, {"measurement": "reduction in clinical signs compared to saline controls", "setting": "haemorrhagic E. coli; faecal condition, FIG. 17", "value": 64, "unit": "%"}, {"measurement": "days on which bacterial shedding was significantly less than saline treated controls", "setting": "haemorrhagic E. coli; faecal cultures", "value": "3/5"}, {"measurement": "reduction of E. coli culture score at post-mortem compared to saline", "setting": "haemorrhagic E. coli; faeces in situ", "value": 23, "unit": "%"}, {"measurement": "reduction of E. coli culture score at post-mortem compared to saline", "setting": "haemorrhagic E. coli; mid small intestine", "value": 51, "unit": "%"}, {"measurement": "reduction in E. coli in the hindgut area (caecum and colon) compared to saline controls", "setting": "haemorrhagic E. coli; post-mortem, FIG. 23", "value": 42, "unit": "%"}, {"measurement": "reduction of bacterial load in the small intestine (foregut) compared with saline controls", "setting": "haemorrhagic E. coli; post-mortem, FIG. 23", "value": 55, "unit": "%"}, {"measurement": "reduction of E. coli culture score at post-mortem compared to saline", "setting": "haemorrhagic E. coli; posterior small intestine", "value": 47, "unit": "%"}, {"measurement": "reduction in the amount of E. coli in the gastro-intestinal tract compared to saline controls", "setting": "haemorrhagic E. coli; total culture scores at post-mortem, FIG. 21", "value": 45, "unit": "%"}, {"measurement": "period of reduced bacterial shedding in faeces after challenge", "setting": "haemorrhagic E. coli; vs saline, FIG. 14", "value": "day 2 through to day 4"}, {"measurement": "Change compared to saline treated controls: Change in clinical signs", "setting": "haemorrhagic E. coli; ↓ (decrease)", "value": 63.6, "unit": "%"}, {"measurement": "Change compared to saline treated controls: Change on faecal bacterial load", "setting": "haemorrhagic E. coli; ↓ (decrease)", "value": 36.5, "unit": "%"}, {"measurement": "Change compared to saline treated controls: E. coli at post-mortem", "setting": "haemorrhagic E. coli; ↓ (decrease)", "value": 44.6, "unit": "%"}, {"measurement": "Change compared to saline treated controls: E. coli in foregut", "setting": "haemorrhagic E. coli; ↓ (decrease)", "value": 55.4, "unit": "%"}, {"measurement": "Change compared to saline treated controls: E. coli in hindgut", "setting": "haemorrhagic E. coli; ↓ (decrease)", "value": 41.7, "unit": "%"}, {"measurement": "Change compared to saline treated controls: Presence of bacterial shedding in faeces", "setting": "haemorrhagic E. coli; ↓ (decrease)", "value": 3, "unit": "days"}, {"measurement": "improved growth compared to saline treated controls", "setting": "[2]; 21 days of App challenge, low and high doses, FIG. 46", "value": 13.5, "unit": "%"}, {"measurement": "amount of lung affected by App lesions", "setting": "[2]; high dose, FIG. 47", "value": "reduced the amount of lung affected by App lesions"}, {"measurement": "production of the pro-inflammatory cytokine IL-8 (mRNA in lung tissue)", "setting": "[2]; high dose, FIG. 49", "value": "greatly reduced"}, {"measurement": "increase in rate of gain vs saline", "setting": "[2]; high dose, first 10 days of App challenge, FIG. 43", "value": "> 100", "unit": "g/day"}, {"measurement": "degree of pleurisy seen at post-mortem", "setting": "[2]; high doses, FIG. 48", "value": "reduced"}, {"measurement": "production of TNFα (mRNA in lung tissue)", "setting": "[2]; high doses, FIG. 50", "value": "inhibited"}, {"measurement": "rate of gain", "setting": "[2]; high doses", "value": 1170, "unit": "g/day"}, {"measurement": "weight gained during the 21-day challenge period", "setting": "[2]; low and high doses, FIG. 45", "value": 17.9, "unit": "kg"}, {"measurement": "rate of gain", "setting": "[2]; low doses", "value": 1250, "unit": "g/day"}]}]}
